Entries after “also recorded” stand apart in the source; their conditions may differ.
What was measured:
[1] = system: rat primary hippocampal neurons; assay: Neurotoxic effect of Aβ1-42 oligomers, MTT viability assay; type: cell-based; conditions: 20 hr
Description: Amylospheroids (ASPDs) and Aβ monomers were prepared following Hoshi, M., et al. (2003) Proc Natl Acad Sci USA 100, 6370-6375, and Noguchi, A., et al. (2009) J Biol Chem 284, 32895-32905. Briefly, Aβ1-42 was dissolved in 1,1,1,3,3,3-hexafluoro-2-propanol and incubated overnight at 4° C. and then 3 hr at 37° C. The dissolved Aβ1-42 was then lyophilized in 1.5 ml polypropylene centrifuge tubes at 40 nmol/tube concentration. For preparing the ASPDs, the lyophilized Aβ was dissolved in phosphate buffered saline (PBS) without Ca^2+ or Mg^2+ at less than 50 μM concentration and rotated for 14 hr at 4° C. After incubation, the Aβ solution was purified using a 100 kDa molecular mass cutoff filter (Amicon Ultra, Millipore) and the high-molecular weight fraction was saved to obtain the most toxic ASPDs. Aβ derived diffusible ligands (ADDLs) were produced as previously described. See Lambert, M. P et al., Proc. Natl. Acad. Sci. USA, 1998, 95: 6448-6453. Briefly, Aβ1-42 was solubilized at 5 mM in dimethyl sulfoxide, diluted to 100 μM in F12k medium and was incubated at 4° C. for 24 hr. The solution was centrifuged at 14000×g for 10 min at 4° C. and the supernatant was used as the ADDLs.
(§1) Viability of cells was measured by MTT assay. MTT (i.e., 3-(4,5-dimethylthiazol-2-yl)-2,5-diphenyltetrazolium bromide) is a tetrazolium salt that is cleaved to formazan by the succinate dehydrogenase, which is only active in viable cells. After solubilization of the formazan, the amount of dye can be quantified with a microplate reader at 570 nm along with a reference of 630 nm. For the MTT assay, 5×10^4 primary rat hippocampal neurons from 18-day-old embryonic Sprague-Dawley rat brains or SH-SY5Y cells were plated on each well of 24-well plates coated with poly-D-lysine. After treatment, the cells were washed with 1× PBS and were incubated with 200 μl of 1 mg/ml MTT solution (Sigma, USA) at 37° C. for 2 hr. Then the MTT-solution was removed and the cells were lysed with 200 μl isopropanol containing 0.04 M HCl and […] for 10 min. Finally, the reading was taken at 570 nm and 630 nm. All the samples were done in triplicate and the data were represented as the percentage of control.
To assess the neurotoxic effect of different sized oligomers, rat primary hippocampal neurons were treated with variable concentrations of these Aβ1-42 species for 20 hr. Viability of the treated cells was compared to untreated cells using the MTT assay described above.

[2] = system: differentiated human SH-SY5Y cells; assay: Neuroprotection against ASPD, MTT assay, differentiated SH-SY5Y cells; type: cell-based; conditions: ASPD alone, compared to untreated cells
Description: For differentiation, SH-SY5Y cells were maintained in medium containing 2% serum and treated with 10 μM all-trans-retinoic acid (RA) for 72 hr. Thereafter, the cells were treated with 0.27 nM Bryostatin 1 for 72 hrs. The medium was changed every 3 days with fresh supplementation of RA.
as §1
In ASPD-treated cells, the viability was 77.15±0.49% (p<0.0001, n=6) compared to the untreated cells.

Wistar rats = assay: Visible platform test (sensorimotor activity and escape motivation); type: in vivo, rat; conditions: oral DCPLA-ME 5.3 or 16.0 mg/kg
Description: Water maze spatial learning and memory task (2 training trials/day for 4 days) was used to evaluate effects of oral DCPLA-ME on learning and memory in rats. A visible platform test was conducted after the end of the experiments to evaluate whether the treatment might result in an altered sensorimotor activity and escape motivation.
At the end of the experiments, the rats were also tested in a visible platform test to evaluate whether the treatment might result in an altered sensorimotor activity and escape motivation.

PKC-δ = PKC-δ (Homo sapiens, UniProt Q05655); assay: PKC activation assay with purified PKC-δ isozyme; type: biochemical
Description: For measurement of PKC activation by DCPLA-ME, activation of recombinant PKC-α, PKC-ε, and PKC-δ was evaluated. DCPLA-ME induced activation was measured in the absence of diacylglycerol (DAG) and phosphatidylserine (PS) as described earlier. See Nelson, T. J. et al., J. Biol. Chem., 2009, 284: 34514-34521, and Kanno, T. et al., J. Cell Physiol., 2009, 221: 183-188. Individual enzymes were incubated for 15 min at 37° C. in the presence of 10 μM histones, 4.89 mM CaCl2, 10 mM MgCl2, 20 mM HEPES (pH 7.4), 0.8 mM EDTA, 4 mM EGTA, 4% glycerol, 8 μg/ml aprotinin, 8 μg/ml leupeptin, 2 mM benzamidine, and 0.5 μCi of [γ-^32P]ATP. Purified PKC-α, PKC-ε and PKC-δ were preincubated with DCPLA-ME for 5 min at room temperature. [^32P]-Phosphoprotein formation was measured by adsorption onto phosphocellulose.
To measure PKC, 10 μl of cell homogenate or purified PKC isozyme was incubated for 15 min at 37° C. in the presence of 10 μM histones, 4.89 mM CaCl2, 1.2 μg/μl phosphatidyl-L-serine, 0.18 μg/μl 1,2-dioctanoyl-sn-glycerol, 10 mM MgCl2, 20 mM HEPES (pH 7.4), 0.8 mM EDTA, 4 mM EGTA, 4% glycerol, 8 μg/ml aprotinin, 8 μg/ml leupeptin, and 2 mM benzamidine. [γ32P]ATP (0.5 μCi) was added and 32P-phosphoprotein formation was measured by adsorption onto phosphocellulose as described previously. See Nelson et al., J. Neurochemistry, 1995, 65: 2350-2357. […]

PKC-δ, sequence (Q05655 whole entry): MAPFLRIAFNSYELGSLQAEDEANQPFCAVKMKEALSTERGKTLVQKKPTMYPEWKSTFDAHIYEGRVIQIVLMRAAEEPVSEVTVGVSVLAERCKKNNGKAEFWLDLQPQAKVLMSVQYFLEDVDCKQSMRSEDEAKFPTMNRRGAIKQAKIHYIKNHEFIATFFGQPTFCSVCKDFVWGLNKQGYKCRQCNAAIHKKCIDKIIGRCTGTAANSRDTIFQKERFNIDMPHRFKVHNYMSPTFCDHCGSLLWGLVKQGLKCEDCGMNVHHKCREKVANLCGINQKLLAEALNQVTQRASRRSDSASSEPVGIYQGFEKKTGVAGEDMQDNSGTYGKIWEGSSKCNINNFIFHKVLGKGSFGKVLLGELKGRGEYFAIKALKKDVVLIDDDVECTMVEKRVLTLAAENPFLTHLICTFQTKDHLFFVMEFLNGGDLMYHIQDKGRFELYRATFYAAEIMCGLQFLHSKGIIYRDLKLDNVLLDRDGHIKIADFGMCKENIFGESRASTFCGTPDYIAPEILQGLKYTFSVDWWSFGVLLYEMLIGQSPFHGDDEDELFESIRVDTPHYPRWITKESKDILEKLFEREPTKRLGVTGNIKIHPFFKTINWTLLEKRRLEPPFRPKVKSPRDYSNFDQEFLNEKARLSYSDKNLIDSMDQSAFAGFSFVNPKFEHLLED

| Molecule | Viability of primary neuron ([1]; 0.5 nM) | Viability of primary neuron ([1]; 1 nM) | Viability of primary neuron ([1]; 2 nM) | Viability of primary neuron ([1]; 5 nM) | Viability of primary neuron ([1]; 10 nM) | Viability of primary neuron ([1]; 50 nM) | Viability of primary neuron ([1]; 50 nM, listed as ASPDs) | Viability of primary neuron ([1]; 500 nM) | viability of SH-SY5Y cells [2] | sensorimotor ability and escape motivation (Wistar rats) | effect on PKC-δ (PKC-δ) |
| --- | --- | --- | --- | --- | --- | --- | --- | --- | --- | --- | --- |
| ASPD: Amylospheroids from Aβ1-42, 100 kDa filter retentate, containing 39 monomers on average | 96.12 ± 0.733 % of control | 89.64 ± 5.99 % of control | 87.75 ± 0.94 % of control | 70.95 ± 1.89 % of control | 68.68 ± 0.84 % of control | 57.55 ± 3.35 % of control | 57.1±4.9 % of control | 52.94 ± 3.75 % of control | 77.15±0.49% |  |  |
| CCCCCC1CC1CC1CC1CCCCCCCC(=O)OC (centres unmarked) [DCPLA-ME, DCPLA methyl ester] |  |  |  |  |  |  |  |  |  | did not affect rats' sensorimotor ability and motivation for an escape | did not have a major effect; also recorded: less inhibitory effect |

Source: patent US9163032B2, “Esters of DCPLA and methods of treatment using the same” (Blanchette Rockefeller Neurosciences Institute, priority 2011, dated 2015)
